One series concerns the target HIV-1 Tat(1-86) (HIV-1, UniProt P04608 P04608:1-86). The series is described as follows: EMSA; TAR variant stated not to bind tat. Particulars: hairpin.
Series [1] addresses T1, Tat basic domain wild-type oligopeptide ([…]) (HIV-1, UniProt P04608 P04608:49-57).
T1 chain: RKKRRQRRR
The series is described as follows: EMSA; affinity similar to tat(1-86). Particulars: protein: synthetic; tags: synthetic L-peptide, American Peptide Company; hairpin. A general note: In EMSA bound probe runs differently from free probe, usually more slowly.

Consider two molecules from US5646120, “Peptide-based inhibitors of HIV replication” (Allelix Biopharmaceuticals, Inc.).

Turning to GGAGAACUGAGCCUGGGAGCUCUCUCC (ssRNA) [TAR variant not binding tat], the binding result with HIV-1 Tat(1-86) is on record as “no binding”.

As to GGAGAUCUGAGCCUGGGAGCUCUCUCC (ssRNA) [truncated functional TAR RNA], in series [1], the binding result is “binds”.
